2 molecules from publication PMC7671035 (mAbs, 2020) can be followed below.

Assay [1] concerns the target rat CXCL3 (Rattus norvegicus, UniProt Q10746). Briefly: SPR. (SPR reads the build-up and loss of mass on a sensor chip optically.)
For assay [2], the target named is mouse CXCL3 (Mus musculus, UniProt Q6W5C0). Briefly: SPR.
Assay [3] concerns the target rat CXCL1 (Rattus norvegicus, UniProt P14095). Briefly: SPR.
Assay [4] has as its target rat CXCL2 (Rattus norvegicus, UniProt P30348). Put plainly: SPR.
For assay [5], the target named is mouse CXCL1 (Mus musculus, UniProt P12850). Put plainly: SPR.
mouse CXCL1, sequence (P12850 25-96): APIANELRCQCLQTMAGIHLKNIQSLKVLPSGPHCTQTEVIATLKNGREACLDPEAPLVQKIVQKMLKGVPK
Assay [6] concerns the target mouse CXCL2 (Mus musculus, UniProt P10889). Put plainly: SPR.
For assay [7], the target named is human CXCL4 (Homo sapiens (Human)., UniProt P02776). Briefly: ELISA. A general note: An ELISA detects its analyte on a solid surface through an enzyme-linked reagent.
human CXCL4, sequence (P02776 32-101): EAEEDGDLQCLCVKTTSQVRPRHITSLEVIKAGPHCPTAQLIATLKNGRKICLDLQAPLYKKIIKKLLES
In assay [8] the target is human CXCL17 (Homo sapiens, UniProt Q6UXB2). Briefly: ELISA.
human CXCL17, sequence (Q6UXB2 22-119): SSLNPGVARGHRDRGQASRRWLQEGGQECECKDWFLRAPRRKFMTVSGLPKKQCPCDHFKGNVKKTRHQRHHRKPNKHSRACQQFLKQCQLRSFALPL
Assay [9] has as its target human CXCL16 (Homo sapiens, UniProt Q9H2A7). Briefly: ELISA.
The target of assay [10] is human CXCL13 (Homo sapiens (Human)., UniProt O43927). Put plainly: ELISA.
human CXCL13, sequence (O43927 23-109): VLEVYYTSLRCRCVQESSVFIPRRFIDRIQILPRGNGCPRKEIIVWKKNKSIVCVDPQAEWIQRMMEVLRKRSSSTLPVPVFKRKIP
For assay [11], the target named is human CXCL12 (Homo sapiens, UniProt P48061). Put plainly: ELISA.
human CXCL12, sequence (P48061 22-93): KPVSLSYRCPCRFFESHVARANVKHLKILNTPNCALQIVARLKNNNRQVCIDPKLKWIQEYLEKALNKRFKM
For assay [12], the target named is human CXCL14 (Homo sapiens, UniProt O95715). Put plainly: ELISA.
human CXCL14, sequence (O95715 35-111): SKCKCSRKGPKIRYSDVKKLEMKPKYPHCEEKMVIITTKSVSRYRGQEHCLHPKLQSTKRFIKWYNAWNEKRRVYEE
For assay [13], the target named is human CXCL10 (Homo sapiens (Human)., UniProt P02778). Briefly: ELISA.
human CXCL10, sequence (P02778 22-98): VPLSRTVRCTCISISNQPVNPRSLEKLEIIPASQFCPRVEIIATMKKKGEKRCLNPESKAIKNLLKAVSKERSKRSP
Assay [14] deals with human CXCL1 (Homo sapiens, UniProt P09341).
human CXCL1, sequence (P09341 35-107): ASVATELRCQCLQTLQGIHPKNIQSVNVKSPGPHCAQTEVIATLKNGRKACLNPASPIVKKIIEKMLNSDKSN

mouse CXCL2, sequence (P10889 28-100): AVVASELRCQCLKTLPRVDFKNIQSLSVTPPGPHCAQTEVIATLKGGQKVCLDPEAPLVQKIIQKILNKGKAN
mouse CXCL3, sequence (Q6W5C0 32-100): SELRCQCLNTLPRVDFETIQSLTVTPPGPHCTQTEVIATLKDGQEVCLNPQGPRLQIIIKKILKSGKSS
rat CXCL1, sequence (P14095 25-96): as the sequence (P12850 25-96) above, with I3V, M15V, L20F, L29M, S31P, L58M counted along it
rat CXCL2, sequence (P30348 32-100): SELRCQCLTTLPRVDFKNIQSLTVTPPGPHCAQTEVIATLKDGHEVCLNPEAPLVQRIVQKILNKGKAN
human CXCL16, sequence (Q9H2A7 30-254): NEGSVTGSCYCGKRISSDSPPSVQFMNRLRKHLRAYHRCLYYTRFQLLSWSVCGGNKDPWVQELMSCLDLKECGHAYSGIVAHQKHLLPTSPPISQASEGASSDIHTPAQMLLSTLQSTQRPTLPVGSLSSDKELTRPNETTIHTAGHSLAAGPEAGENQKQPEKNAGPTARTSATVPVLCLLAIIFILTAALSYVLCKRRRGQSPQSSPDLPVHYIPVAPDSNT
rat CXCL3, sequence (Q10746 33-101): as the sequence (Q6W5C0 32-100) above, with S1R, N9K, T18N, G52A, I57K, K60Q, I62L, G66D counted along it

B1: LY3041658 (antibody, V domains shown)
VH: QVQLVQSGAEVKKPGASVKVSCKASGYEFTSYWIHWVRQAPGQGLEWMGNISPNSGSANYNEKFKSRVTMTRDTSTSTVYMELSSLRSEDTAVYYCAREGPYSYYPSREYYGSDLWGQGTLVTVSS
VL: EIVLTQSPATLSLSPGERATLSCRASQSISNNLHWYQQKPGQAPRLLIYYTSRSVSGIPARFSGSGSGTDFTLTISSLEPEDFAVYYCGQNNEWPEVFGGGTKVEIK
Regarding B1, the Kd in assay [1], in [2], in [3], in assay [4], in assay [5] and in assay [6] was about 0.2 nM throughout. Besides, the binding result in assay [7], in assay [8], in assay [9], in assay [10], in [11] and in assay [12] was “no binding (tested: 20 µg/mL)” in each case. Moreover, in [13], the binding result is given as “no binding (tested: 20 µg/mL)”.

B2: 1581 (antibody, V domains shown)
VH: QVHVKQSGAELVKPGASVRLSCTASGYTFTSYWMHWVKQRPGQGLEWIGNINPNSGSANYNEKFKSKATLTVDTSSSTAYMQLSSLTSEDSAVYYCTREGPYSYYPVRVYYGLDYWGQGTSVTVSS
VL: DIVLTQSPATLSVTPGDRVSLSCRASQSISNNLHWYQQKSHESPRLLIKYTSQSVSGIPSRFSASGSGTDFTLSINSVETEDFGMYFCQQSNSWPLTFGAGTKLELK
On to B2, for which the binding result in assay [14] is listed as “binds”.
